Columns and labels:
[1] = target: Plasmodium vivax lactate dehydrogenase (PvLDH) (Plasmodium vivax, UniProt Q4PRK9 1-316); test: antibody-aptamer sandwich plasmon-enhanced fluorescence; details: protein: recombinant; chain copies: 4
[2] = target: Plasmodium falciparum lactate dehydrogenase (PfLDH) (Plasmodium falciparum, UniProt Q76NM3 1-316); test: antibody-aptamer sandwich plasmon-enhanced fluorescence; PfLDH captured by anti-PLDH on AuNP array; spiked human blood; 0.1 uM aptamer; sandwich LOD 18 fM (not a Kd); association time constant 45 +/- 15 min; Aptamer step: PBS (10 mM NaCl, 10 mM NaH2PO4, 10 mM Na2HPO4, 1 mM MgCl2, pH 7.1), 0.1 uM Cy5-aptamer, 2 h in the dark; temperature not stated; analyte spiked in human blood; details: protein: recombinant; chain copies: 4; label: 5'-Cy5

CTGGGCGGTAGAACCATAGTGACCCAGCCGTCTAC (ssDNA) [malaria 2008s aptamer]
binding result [1]: no binding
binding result [2]: binds

From article PMC7708447, “Ultrasensitive antibody-aptamer plasmonic biosensor for malaria biomarker detection in whole blood”
